According to the Immune Epitope Database (IEDB):
One block for each sequence: values may come before it.

Key:
HLA-A*30:01 = assay: IEDB peptide-MHC binding, purified MHC/competitive/fluorescence; filed as Kd, often an IC50 or EC50 that approximates it; ≥ and ≤ were set here for values at or beyond the usual limits of such assays; conditions: source organism: Orthomarburgvirus marburgense
HLA-A*26:01 [1] = assay: as above; conditions: source organism: Orthomarburgvirus marburgense
HLA-A*02:01 [2] = assay: as above; conditions: source organism: Orthomarburgvirus marburgense
HLA-A*31:01 [3] = assay: as above; conditions: source organism: Orthomarburgvirus marburgense
HLA-A*02:03 = assay: as above
HLA-A*11:01 [4] = assay: as above; conditions: source organism: Orthomarburgvirus marburgense
HLA-A*01:01 = assay: IEDB peptide-MHC binding, purified MHC/direct/fluorescence; filed as Kd, often an IC50 or EC50 that approximates it; ≥ and ≤ were set here for values at or beyond the usual limits of such assays
HLA-B*48:01 = assay: as above
HLA-A*69:01 = assay: as above
HLA-B*57:01 [5] = assay: as above
HLA-B*08:01 = assay: as above
HLA-B*58:01 = assay: as above
HLA-B*27:05 = assay: as above
HLA-B*07:02 = assay: as above
HLA-B*15:17 [6] = assay: as above
HLA-B*15:01 = assay: as above
HLA-A*68:02 [7] = assay: as above; conditions: source organism: Marburg virus - Musoke, Kenya, 1980
HLA-B*15:02 = assay: as above
HLA-B*46:01 = assay: as above
HLA-A*02:11 = assay: IEDB peptide-MHC binding, purified MHC/competitive/fluorescence; filed as Kd, often an IC50 or EC50 that approximates it; ≥ and ≤ were set here for values at or beyond the usual limits of such assays; conditions: source organism: Corynebacterium glutamicum ATCC 13032
HLA-A*02:12 = assay: as above; conditions: source organism: Corynebacterium glutamicum ATCC 13032
HLA-A*02:50 = assay: as above; conditions: source organism: Corynebacterium glutamicum ATCC 13032
HLA-A*02:06 = assay: as above; conditions: source organism: Corynebacterium glutamicum ATCC 13032
HLA-A*03:01 = assay: IEDB peptide-MHC binding, purified MHC/direct/fluorescence; filed as Kd, often an IC50 or EC50 that approximates it; ≥ and ≤ were set here for values at or beyond the usual limits of such assays
HLA-A*26:01 [8] = assay: as above; conditions: source organism: Corynebacterium glutamicum
HLA-A*02:01 [9] = assay: as above
HLA-A*31:01 [10] = assay: as above
HLA-B*40:01 = assay: as above
HLA-A*11:01 [11] = assay: as above
HLA-B*39:01 = assay: IEDB peptide-MHC binding, purified MHC/competitive/fluorescence; filed as Kd, often an IC50 or EC50 that approximates it; ≥ and ≤ were set here for values at or beyond the usual limits of such assays; conditions: source organism: Vibrio cholerae 2740-80
HLA-B*15:09 = assay: as above; conditions: source organism: Vibrio cholerae 2740-80
HLA-B*18:01 = assay: IEDB peptide-MHC binding, purified MHC/direct/fluorescence; filed as Kd, often an IC50 or EC50 that approximates it; ≥ and ≤ were set here for values at or beyond the usual limits of such assays
HLA-B*51:01 = assay: as above; conditions: source organism: Vibrio cholerae
HLA-B*08:02 = assay: as above; conditions: source organism: Vibrio cholerae V52
HLA-A*30:02 = assay: IEDB peptide-MHC binding, purified MHC/competitive/radioactivity; filed as Kd, often an IC50 or EC50 that approximates it; ≥ and ≤ were set here for values at or beyond the usual limits of such assays; conditions: source organism: Dengue virus 3 Martinique/1243/1999
HLA-B*73:01 = assay: IEDB peptide-MHC binding, purified MHC/competitive/fluorescence; filed as Kd, often an IC50 or EC50 that approximates it; ≥ and ≤ were set here for values at or beyond the usual limits of such assays; conditions: source organism: Brucella abortus S19
HLA-B*15:17 [12] = assay: as above; conditions: source organism: Vaccinia virus Tian Tan
HLA-A*68:02 [13] = assay: as above; conditions: source organism: Vaccinia virus Tian Tan
HLA-A*26:02 = assay: as above; conditions: source organism: Vaccinia virus Tian Tan
HLA-B*44:02 = assay: IEDB peptide-MHC binding, purified MHC/direct/fluorescence; filed as Kd, often an IC50 or EC50 that approximates it; ≥ and ≤ were set here for values at or beyond the usual limits of such assays; conditions: source organism: Camelpox virus CMS
HLA-A*26:03 = assay: as above; conditions: source organism: Variola virus
HLA-B*57:01 [14] = assay: IEDB peptide-MHC binding, purified MHC/competitive/fluorescence; ≥ and ≤ were set here for values at or beyond the usual limits of such assays; conditions: source organism: Homo sapiens
[15] = source organism: Marburg virus - Musoke, Kenya, 1980
[16] = source organism: Ravn virus - Ravn, Kenya, 1987
[17] = source organism: Corynebacterium glutamicum
[18] = source organism: Vibrio cholerae
[19] = source organism: dengue virus type 3
[20] = source organism: Camelpox virus CMS

Sequence: ALFHKVQSY
- Kd (HLA-A*30:01): 438 nM
- Kd (HLA-A*26:01 [1]): 1140 nM
- Kd (HLA-A*02:01 [2]): 1310 nM
- Kd (HLA-A*31:01 [3]): 3.92 µM
- Kd (HLA-A*02:03; source organism: Orthomarburgvirus marburgense): 1560 nM
- Kd (HLA-A*11:01 [4]): 1940 nM
- Kd (HLA-A*01:01; [15]): ≥ 20 µM
- Kd (HLA-B*48:01; [15]): ≥ 20 µM
- Kd (HLA-A*69:01; [15]): ≥ 20000 nM
- Kd (HLA-B*57:01 [5]; [15]): ≥ 20 µM
- Kd (HLA-B*08:01; [16]): ≥ 20 µM
- Kd (HLA-B*58:01; [15]): ≥ 20 µM
- Kd (HLA-B*27:05; [15]): ≥ 20 µM
- Kd (HLA-B*07:02; [15]): ≥ 20 µM
- Kd (HLA-B*15:17 [6]; [15]): 4.6 nM
- Kd (HLA-B*15:01; [15]): 0.0205 µM
- Kd (HLA-A*68:02 [7]): ≥ 20 µM
- Kd (HLA-B*15:02; [16]): 38 nM
- Kd (HLA-B*46:01; [15]): ≥ 20 µM

- Kd (HLA-A*02:11): ≤ 0.1 nM
- Kd (HLA-A*02:12): ≤ 0.1 nM
- Kd (HLA-A*02:03; source organism: Corynebacterium glutamicum ATCC 13032): ≤ 0.1 nM
- Kd (HLA-A*02:50): ≤ 0.1 nM
- Kd (HLA-A*02:06): ≤ 0.1 nM
- Kd (HLA-A*03:01; [17]): ≥ 20 µM
- Kd (HLA-A*01:01; [17]): ≥ 20 µM
- Kd (HLA-A*26:01 [8]): ≥ 20 µM
- Kd (HLA-A*02:01 [9]; [17]): 0.0728 µM
- Kd (HLA-A*31:01 [10]; [17]): ≥ 20 µM
- Kd (HLA-A*69:01; [17]): 404 nM
- Kd (HLA-B*08:01; [17]): ≥ 20 µM
- Kd (HLA-B*58:01; [17]): ≥ 20 µM
- Kd (HLA-B*27:05; [17]): ≥ 20 µM
- Kd (HLA-B*07:02; [17]): ≥ 20 µM
- Kd (HLA-B*40:01; [17]): ≥ 20 µM
- Kd (HLA-B*15:01; [17]): ≥ 20 µM
- Kd (HLA-A*11:01 [11]; [17]): ≥ 20 µM
Sequence: FLPGQYMNI

Sequence: FPLTQRDVL
- Kd (HLA-B*39:01): 14.4 nM
- Kd (HLA-B*15:09): 358 nM
- Kd (HLA-A*03:01; [18]): ≥ 20 µM
- Kd (HLA-A*01:01; [18]): ≥ 20 µM
- Kd (HLA-A*02:01 [9]; [18]): ≥ 20 µM
- Kd (HLA-B*48:01; [18]): ≥ 20 µM
- Kd (HLA-A*31:01 [10]; [18]): ≥ 20 µM
- Kd (HLA-B*18:01; [18]): 1900 nM
- Kd (HLA-A*69:01; [18]): 718 nM
- Kd (HLA-B*57:01 [5]; [18]): ≥ 20 µM
- Kd (HLA-B*58:01; [18]): ≥ 20 µM
- Kd (HLA-B*27:05; [18]): ≥ 20 µM
- Kd (HLA-B*51:01): 2820 nM
- Kd (HLA-B*07:02; [18]): 0.046 µM
- Kd (HLA-B*15:17 [6]; [18]): ≥ 20000 nM
- Kd (HLA-B*40:01; [18]): ≥ 20 µM
- Kd (HLA-B*15:01; [18]): ≥ 20 µM
- Kd (HLA-B*46:01; [18]): ≥ 20 µM
- Kd (HLA-B*08:02): ≥ 20 µM
- Kd (HLA-A*11:01 [11]; [18]): ≥ 20 µM

Sequence: KQIANELNY
- Kd (HLA-A*30:02): ≥ 76.9 µM
- Kd (HLA-B*15:02; [19]): ≥ 20000 nM
- Kd (HLA-B*46:01; [19]): ≥ 20 µM

Sequence: NEAWGKKPV
- Kd (HLA-B*73:01): ≥ 20 µM

Sequence: REVFYFGKF
- Kd (HLA-B*15:17 [12]): ≥ 20 µM
- Kd (HLA-A*68:02 [13]): 3.04 µM
- Kd (HLA-A*26:02): 2350 nM
- Kd (HLA-A*01:01; [20]): ≥ 20 µM
- Kd (HLA-A*02:01 [9]; [20]): ≥ 20 µM
- Kd (HLA-B*48:01; [20]): ≥ 20 µM
- Kd (HLA-A*31:01 [10]; [20]): ≥ 20 µM
- Kd (HLA-B*18:01; [20]): 813 nM
- Kd (HLA-A*69:01; [20]): ≥ 20000 nM
- Kd (HLA-B*57:01 [5]; [20]): ≥ 20 µM
- Kd (HLA-B*44:02): ≥ 20 µM
- Kd (HLA-B*58:01; [20]): ≥ 20 µM
- Kd (HLA-B*27:05; [20]): ≥ 20 µM
- Kd (HLA-B*07:02; [20]): ≥ 20 µM
- Kd (HLA-B*40:01; [20]): 0.0617 µM
- Kd (HLA-A*26:03): ≥ 20 µM
- Kd (HLA-A*11:01 [11]; [20]): ≥ 20 µM

- IC50 (HLA-B*57:01 [14]): 853 nM
Sequence: STIRLLTSL
